Assay [1] concerns the target T1, Akt1-S473E (H. sapiens, UniProt P31749 118-480 (human entry)).
T1 construct: Partially active Akt1 kinase domain expressed in Hi5 insect cells from pVLAKT.2; also called Akt-S473E; AktS473E
T1 chain: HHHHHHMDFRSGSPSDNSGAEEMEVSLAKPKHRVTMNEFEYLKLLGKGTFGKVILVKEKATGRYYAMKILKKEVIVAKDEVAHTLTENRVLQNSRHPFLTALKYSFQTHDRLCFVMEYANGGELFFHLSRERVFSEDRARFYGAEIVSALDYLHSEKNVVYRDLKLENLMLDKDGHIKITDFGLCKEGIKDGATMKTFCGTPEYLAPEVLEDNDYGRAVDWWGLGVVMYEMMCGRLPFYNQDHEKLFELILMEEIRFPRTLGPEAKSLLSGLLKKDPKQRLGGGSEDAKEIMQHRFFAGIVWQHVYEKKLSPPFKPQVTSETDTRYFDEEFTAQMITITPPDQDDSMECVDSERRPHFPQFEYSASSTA
The assay is described as follows: ELISA: Akt-S473E on Ni-NTA plate, biotinylated peptide titrated, SA-HRP. On the procedure:
3 μg of Akt-S473E was added to each well in a HisSorb Ni-NTA plate (Qiagen) in 50 μL of ELISA blocking buffer (25 mM Tris-CI (pH=7.5), 150 mM NaCl, 10 mM MgCl₂, 0.1% (v/v) Tween-20, and 4 mg/mL BSA). 50 μL of imidazole blocking buffer (25 mM Tris-CI (pH=7.5), 150 mM NaCl, 10 mM MgCl₂, 0.1% (v/v) Tween-20, 100 mM imidazole, and 4 mg/mL BSA) was added to the control wells. After 18 hours at 4° C., the wells were washed with ELISA blocking buffer and 50 μL of each ligand dilution was added in ELISA blocking buffer. The ligands were bound at 4° C. for 120 minutes followed by three washed in ELISA blocking buffer. 50 μL of horseradish peroxidase-conjugated streptavidin (SA-HRP, Thermo) was added (1:5000 dilution in ELISA blocking buffer) and incubated for 70 minutes at 4° C. The wells were washed three times in TBST (Tris-buffered saline+0.2% Tween-20) and once in TBS (Tris-buffered saline). 50 μL of peroxidase substrate (KPL) was added to generate the final signal which was quenched in 1 M H₂SO₄ and quantitated on a 96-well plate reader at λ=450 nm. The Net A450 was calculated by subtracting the A450 of each blank well (No Akt-S473E) from the experimental well. The data were fit by non-linear regression in GraphPad Prism.
(In general: In an ELISA, binding on a coated surface is turned into a signal by an enzyme label.)

A further assay has as its target T2, Akt1-S473E-T308P (H. sapiens, UniProt P31749 118-480 (human entry), phosphorylated at residue T308 (phosphothreonine)).
T2 construct: Fully active kinase; T308P means phospho-T308, not a proline substitution; Same construct as Akt1-S473E; also called Akt-S473E-T308P; Akt-S473E/T308P
T2 chain: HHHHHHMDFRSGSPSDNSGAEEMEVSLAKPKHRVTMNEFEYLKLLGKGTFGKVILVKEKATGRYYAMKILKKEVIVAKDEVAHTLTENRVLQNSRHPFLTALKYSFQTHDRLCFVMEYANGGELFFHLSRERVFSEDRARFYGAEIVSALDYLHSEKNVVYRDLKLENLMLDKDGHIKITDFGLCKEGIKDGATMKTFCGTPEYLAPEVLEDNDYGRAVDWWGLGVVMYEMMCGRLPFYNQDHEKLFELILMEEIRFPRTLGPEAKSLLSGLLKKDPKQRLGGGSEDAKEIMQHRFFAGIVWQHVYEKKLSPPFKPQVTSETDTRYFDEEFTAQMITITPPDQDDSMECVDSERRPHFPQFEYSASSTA
The assay is described as follows: kinase kinetics, Dixon plot of 1/v vs. [Triligand] with varying [ATP]; noncompetitive. The procedure:
To determine the inhibition mode of the triligand with respect to the ATP, kinase reactions were set up with increasing concentrations of ATP. The reactions were set up in a similar manner to that described above. The concentration of Biotin-Crosstide was held constant at 25 μM and the concentration of enzyme was held at […]. The concentration of ATP ranged from 125 μM to 4 μM (125 μM, 63 μM, 32 μM, 16 μM, 8 μM, 4 μM) while the concentration of triligand varied from 0 to 10 μM (0, 1 μM, 5 μM, 10 μM). [γ-³²P]-ATP (7000 Ci/mmol, 10 μCi/μL) was added to the cold ATP stock to maintain an [ATP]ₜₒₜₐₗ/[γ-³²P]-ATP ratio of 1667. The reactions were incubated, quenched, and analyzed as described above.
KM and Vₘₐₓ values for Akt1-S473ET308P were obtained by nonlinear regression from the results of the inhibition experiments (GraphPad). The literature values for the Michaelis constants for ATP and substrate peptide were taken from Klein 2005. The triligand Kᵢ (noncompetitive inhibition) was obtained from the negative X-intercept of the Dixon plot of 1/v vs. [Triligand] with varying [ATP]. The Kᵢ is the mean value of the observed X-intercepts and the error range is the standard deviation. The triligand K_{i′}, (uncompetitive inhibition) was obtained from the intercept of the Dixon plot of 1/v vs. [Triligand] with varying [Peptide]. […]

For assay [2], the target named is T1, Akt1-S473E. The assay is described as follows: SPR (Biacore T100): biotinylated triligand on streptavidin chip, Akt1-S473E 9000 nM to 1 nM as analyte, 10 °C, from kinetic constants. The procedure: For this experiment, the biotinylated triligand was immobilized on a streptavidin-derivatized biacore chip and probed with Akt-S473E at concentrations ranging from 9 μM to 1 nM.
Triligand binding affinity was further analyzed by SPR using a Biacore T100. A Streptavidin Chip (Series S, G.E. Healthcare) was conditioned as recommended by the manufacturer. Biotinylated ligand was diluted into HBSP+ Buffer (G.E. Healthcare) to a final concentration of 100 nM and 137 RU was immobilized on the chip. Akt1-S473E was prepared as described previously and subjected to buffer exchange into HBSP+using Zeba Desalting Columns (Pierce). Serial dilutions of the enzyme were made in HBSP+ buffer (9000 nM to 1 nM) and flowed over the chip at 50 μL/minute. Binding and dissociation were carried out at 10° C. with a contact time of 360 seconds, a dissociation time of 400 seconds, and a stabilization time of 200 seconds. The response was corrected using an unmodified reference flow cell. Kinetic constants were obtained from the sensograms and used to calculate the dissociation constant.

Assay [3] concerns the target T1, Akt1-S473E. The assay is described as follows: ELISA.

Numbered stars: 1 amine (or outer) side, 2 acyl side, 3 side chain; on linkers, the order of the positions; unused ones are H or OH. Bridge positions count the residues as written; N and C are the ends. Square brackets hold non-standard residues; d marks the D form. Primed or numbered codes have the meaning given here. Ends that are not written are not given here. I, II: the chains in the order shown. * marks the point of attachment. Az8″ = 2-amino-10-azidodecanoic acid (azido amino acid), [N-]=[N+]=NCCCCCCCC[C@H](N[*:1])C(=O)[*:2]; Butanoyl(4-ethynyl) = C#CCCCC(=O)*; Biotin′ = not defined here; Pra = C#CC[C@H](N)C(=O)O; C8N3 = not defined here; 5HA = not defined here; Az8 = not defined here Where only a bound is given, the exact number is not on record here.

B1: 5HA-Biligand-Bio (Akt biligand) (designed binder)
peptide 1: {Butanoyl(4-ethynyl)-Az8}-VFYRLGY-biotin
peptide 2: Ac-[Pra]FWFLRG-NH2
modifications: triazole II:N-II:1; reading uncertain; also: mixture of diastereomers
notes: Branched peptide, mixture of diastereomers; also called biotinylated biligand
In the case of B1, the “fold improvement in affinity relative to the anchor peptide” value in the assay with Akt1-S473E [1] was more than 100 fold.

B2: Akt triligand (biotinylated) (designed binder)
peptide 1: {5HA-C8N3}-VFYRLGY-{Biotin′}
peptide 2: Ac-[Pra]FWFLRG-NH2
peptide 3: {Ac-C8N3}-RHERI-NH2
modifications: triazole II:N-II:1; reading uncertain; also: triazole to a chain's N-terminus
notes: Assembled from 5HA-Biligand-Bio and Ac-C8N3-RHERI-CONH2; also called branched triligand
One may read the Ki as the equilibrium dissociation constant of an inhibitor or competing ligand from its target. What is called Kd is a measure of binding affinity in units of concentration. Read a low Kd as tighter binding. Regarding B2, affinity in the assay with Akt1-S473E-T308P was put at a Ki of 4 µM. Besides, in the assay with Akt1-S473E [2], the Kd is 0.2 µM.

B3: biotinylated anchor ligand Az8-VFYRLGY-Biotin (peptide)
peptide: [Az8″]VFYRLGY-biotin
notes: also called anchor peptide; biotinylated anchor peptide
For the molecule B3, binding in the assay with Akt1-S473E [3] was put at a Kd of 25 µM.
